The source of these data is article PMC10634658.

In assay [1] the target is BLUF-α3 (PAC-BLUF domain with the α3-helix of OaPAC, residues 1-126) (Oscillatoria acuminata). Nature of the assay: transient grating (diffusion coefficient); 80 μM protein, 23 °C, excitation at 462 nm; diffusion coefficients of reactant (dark) and photoproduct (light) compared with those expected for monomer and dimer.
For assay [2] the target is unchanged. Nature of the assay: SEC; Superdex 200 Increase 10/300, PBS, room temperature, 50 μM, 100 μl injected; dark state and light state (column irradiated with a Xe lamp); mass calibrated with a gel filtration standard.
Assay [3] deals with PAC-BLUF (BLUF domain of OaPAC, residues 1-102) (Oscillatoria acuminata). Nature of the assay: transient grating (diffusion coefficient); 80 μM protein, 23 °C, excitation at 462 nm; diffusion coefficients of reactant (dark) and photoproduct (light) compared with those expected for monomer and dimer.
Assay [4] shares this target. Nature of the assay: SEC; Superdex 200 Increase 10/300, PBS, room temperature, 50 μM, 100 μl injected; dark state and light state (column irradiated with a Xe lamp); mass calibrated with a gel filtration standard.
For assay [5], the target named is full-length OaPAC (photoactivated adenylate cyclase from Oscillatoria acuminata) (Oscillatoria acuminata). Description: transient grating (diffusion coefficient); 80 μM protein, 23 °C, excitation at 462 nm; diffusion coefficients of reactant (dark) and photoproduct (light) compared with those expected for monomer and dimer.
For assay [6] the target is unchanged. Nature of the assay: SAXS; Photon Factory BL-15A2, flowing sample, dark state and light state (450 nm diode laser); molecular mass from the Guinier plot (80 kDa).
For assay [7] the target is unchanged. Description: SEC; Superdex 200 Increase 10/300, PBS, room temperature, 50 μM, 100 μl injected; dark state and light state (column irradiated with a Xe lamp); mass calibrated with a gel filtration standard. (In general: Size exclusion chromatography separates by hydrodynamic size, large species first.)

What is called stoichiometry N is a count of units in the complex or per binding partner. Take “BLUF-α3 (PAC-BLUF domain with the α3-helix of OaPAC, residues 1-126) (domain or fragment)”: the stoichiometry N in assay [1] and in assay [2] was 2 throughout.
Take “PAC-BLUF (BLUF domain of OaPAC, residues 1-102) (domain or fragment)”: the stoichiometry N in assay [3] and in assay [4] was 2 each time.
On to “full-length OaPAC (photoactivated adenylate cyclase from Oscillatoria acuminata) (enzyme)”, for which the stoichiometry N in assay [5], in assay [6] and in assay [7] was 2 throughout.
